Measured values: US20150344570A1 (published 2015)

What was measured:
FcγRIIa H [1] = target: T1, FcγRIIa H (human, UniProt P12318 34-217); experiment: SPR (Biacore), captured antibody, FcγR as analyte; GpH7-A5/GpH7-B3/GpL16-k0 = 100
T1 construct: extracellular domain; also called FcγRIIa type H; 2aH
T1 sequence (looked up): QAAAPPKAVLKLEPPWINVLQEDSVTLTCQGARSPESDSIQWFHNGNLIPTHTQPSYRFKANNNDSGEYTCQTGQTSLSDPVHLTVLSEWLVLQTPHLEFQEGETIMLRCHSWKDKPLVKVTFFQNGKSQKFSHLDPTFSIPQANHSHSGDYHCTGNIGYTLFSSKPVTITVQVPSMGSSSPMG

FcγRIIb [2] = target: T2, FcγRIIb (human, UniProt P31994 43-217); experiment: as above
T2 construct: extracellular domain; also called 2b; FcgRIIb
T2 sequence (looked up): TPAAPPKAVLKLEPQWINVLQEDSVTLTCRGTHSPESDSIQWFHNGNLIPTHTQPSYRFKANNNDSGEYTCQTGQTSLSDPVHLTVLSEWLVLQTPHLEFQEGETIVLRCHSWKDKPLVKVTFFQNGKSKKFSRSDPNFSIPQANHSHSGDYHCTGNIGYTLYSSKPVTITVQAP

FcγRIIa H [3] = target: T1, FcγRIIa H; experiment: ratio of He/Con_2aH to He/Con_2b (FcγRIIb); SPR
FcγRIIa R [4] = target: T3, FcγRIIa R (human, UniProt P12318 34-217); experiment: SPR; He/Con_2aR divided by He/Con_2b (FcγRIIa R over FcγRIIb)
T3 construct: extracellular domain; also called FcgRIIa R type; 2aR; not shown: His tag at the C terminus
T3 sequence (looked up): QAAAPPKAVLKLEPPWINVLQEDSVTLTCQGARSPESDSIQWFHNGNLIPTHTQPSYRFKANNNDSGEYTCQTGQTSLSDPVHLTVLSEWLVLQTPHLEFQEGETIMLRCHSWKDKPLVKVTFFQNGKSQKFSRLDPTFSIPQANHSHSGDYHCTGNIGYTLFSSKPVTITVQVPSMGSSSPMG

FcγRIIb [5] = target: T4, FcγRIIb (human, UniProt P31994 43-217); experiment: SPR, relative to GpH7-A5/GpH7-B3/GpL16-k0
T4 construct: extracellular domain; also called FcgRIIb; 2b; not shown: His tag at the C terminus
T4 sequence (looked up): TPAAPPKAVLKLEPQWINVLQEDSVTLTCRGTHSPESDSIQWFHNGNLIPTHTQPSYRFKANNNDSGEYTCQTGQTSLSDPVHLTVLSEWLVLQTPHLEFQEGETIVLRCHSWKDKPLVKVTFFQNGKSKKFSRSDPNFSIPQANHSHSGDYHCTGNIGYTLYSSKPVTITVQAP

FcγRIIa R [6] = target: T3, FcγRIIa R; experiment: SPR, relative to GpH7-A5/GpH7-B3/GpL16-k0
[7] = target: T5, FcγRIIIa extracellular domain with C-terminal His tag (human, UniProt P08637 17-208); experiment: SPR (Biacore); He/Con_3a divided by He/Con_2b (FcγRIIb)
T5 construct: extracellular domain; also called FcgRIIIa; 3a; not shown: His tag at the C terminus
T5 sequence (P08637 17-208): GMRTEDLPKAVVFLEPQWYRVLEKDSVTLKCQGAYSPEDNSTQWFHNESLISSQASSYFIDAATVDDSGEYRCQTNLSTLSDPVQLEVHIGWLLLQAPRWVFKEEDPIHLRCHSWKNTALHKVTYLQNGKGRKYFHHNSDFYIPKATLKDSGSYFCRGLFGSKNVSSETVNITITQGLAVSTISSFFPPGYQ

[8] = target: T5, FcγRIIIa extracellular domain with …; experiment: SPR (Biacore), FcγR as analyte over captured antibody; GpH7-A5/GpH7-B3/GpL16-k0 = 100
Method: (§1) The heterodimerized antibodies He Abs in which one of the H chains was introduced with an alteration were assayed for their binding activities to each activating FcγR and inhibitory FcγR according to the method described in Example 4. […] The activating FcγRs in FIGS. 26, 27, 28, and 29 are FcγRIa, FcγRIIa (R), FcγRIIa (H), and FcγRIIIa, respectively.
(§2) Analysis of interaction between objective antibody and the FcγR was carried out using Biacore T100 (GE Healthcare). HBS-EP+ (GE Healthcare) was used as the running buffer, and the measurement temperature was set to 25° C. Chips produced by immobilizing the antigen peptide by the amine coupling method to a Series S Sencor Chip CM5 (GE Healthcare), or alternatively, chips produced by allowing preliminarily biotinylated antigen peptides to interact with and immobilize onto a Series S Sensor Chip SA (certified) (GE Healthcare) were used. Antibodies of interest were captured onto an antigen peptide-immobilized chip, and allowed to interact to each FcγR diluted with running buffer. To regenerate and repeatedly use the chip, the antibodies captured on the chip were washed off by reacting 10 mM glycine-HCl, pH 1.5.

[9] = target: T6, FcγRIIIa extracellular domain with C-terminal His tag (human, UniProt P08637 17-208); experiment: SPR (Biacore), antibody captured on antigen peptide chip, FcγR as analyte; GpH7-A5/GpH7-B3/GpL16-k0 = 100
T6 construct: extracellular domain; also called FcgRIIIa; 3a
Method: as §1, §2
T6 sequence (P08637 17-208): as above

[10] = target: T6, FcγRIIIa extracellular domain with …; experiment: SPR (Biacore); He/Con_3a divided by He/Con_2b (FcγRIIIa against FcγRIIb)
Method: as §1, §2

B1: GpH7-A5/GpH7-B3 variant Y300_07I/GpL16-k0 (antibody, human IgG1, kappa)
heavy 1: not shown
heavy 2: not shown
light: DIVMTQSPLSLPVTPGEPASISCQASESLVHSNRNTYLHWYLQKPGQSPQLLIYKVSNRFSGVPDRFSGSGSGTDFTLKISRVEAEDVGVYYCSQNTHVPPTFGQGTKVEIERTVAAPSVFIFPPSDEQLKSGTASVVCLLNNFYPREAKVQWKVDNALQSGNSQESVTEQDSKDSTYSLSSTLTLSKADYEKHKVYACEVTHQGLSSPVTKSFNRGEC
notes: Heterodimerized anti-glypican-3 IgG1 (He Ab); mutation in the B3 H chain only; also called He Ab
He/Con_2aH (relative binding) (FcγRIIa H [1]): 108% | He/Con_2b (relative binding) (FcγRIIb [2]): 74.5% | He_2aH/2b (IIaH/IIb ratio) (FcγRIIa H [3]): 1.45

B2: GpH7-A5/GpH7-B3 variant S267_08L/GpL16-k0 (antibody, human IgG1, kappa)
heavy 1: not shown
heavy 2: not shown
light: DIVMTQSPLSLPVTPGEPASISCQASESLVHSNRNTYLHWYLQKPGQSPQLLIYKVSNRFSGVPDRFSGSGSGTDFTLKISRVEAEDVGVYYCSQNTHVPPTFGQGTKVEIERTVAAPSVFIFPPSDEQLKSGTASVVCLLNNFYPREAKVQWKVDNALQSGNSQESVTEQDSKDSTYSLSSTLTLSKADYEKHKVYACEVTHQGLSSPVTKSFNRGEC
notes: Heterodimerized anti-glypican-3 IgG1; mutation in the GpH7-B3 chain only; also called He Ab
He_2aR/2b (FcγRIIa R [4]): 0.66 ratio | He/Con_2b (FcγRIIb [5]): 109 control = 100 | He/Con_2aR (FcγRIIa R [6]): 72.1 control = 100

B3: GpH7-A5/GpH7-B3 variant Y300_05P/GpL16-k0 (antibody, human IgG1, kappa)
heavy 1: not shown
heavy 2: not shown
light: DIVMTQSPLSLPVTPGEPASISCQASESLVHSNRNTYLHWYLQKPGQSPQLLIYKVSNRFSGVPDRFSGSGSGTDFTLKISRVEAEDVGVYYCSQNTHVPPTFGQGTKVEIERTVAAPSVFIFPPSDEQLKSGTASVVCLLNNFYPREAKVQWKVDNALQSGNSQESVTEQDSKDSTYSLSSTLTLSKADYEKHKVYACEVTHQGLSSPVTKSFNRGEC
notes: Heterodimerized IgG1 antibody; alteration in the GpH7-B3 chain only; also called He Ab
He_3a/2b (IIIa/IIb) [7]: 0.38 ratio | He/Con_3a [8]: 2.8 % of control

B4: GpH7-A5/GpH7-B3 variant A327_09D/GpL16-k0 (antibody, human IgG1, kappa)
heavy 1: not shown
heavy 2: not shown
light: DIVMTQSPLSLPVTPGEPASISCQASESLVHSNRNTYLHWYLQKPGQSPQLLIYKVSNRFSGVPDRFSGSGSGTDFTLKISRVEAEDVGVYYCSQNTHVPPTFGQGTKVEIERTVAAPSVFIFPPSDEQLKSGTASVVCLLNNFYPREAKVQWKVDNALQSGNSQESVTEQDSKDSTYSLSSTLTLSKADYEKHKVYACEVTHQGLSSPVTKSFNRGEC
notes: as for B2
He_2aR/2b (FcγRIIa R [4]): 0.72 ratio | He/Con_2b (FcγRIIb [5]): 172 control = 100 | He/Con_2aR (FcγRIIa R [6]): 124 control = 100

B5: GpH7-A5/GpH7-B3 variant L328_11K/GpL16-k0 (antibody, human IgG1, kappa)
heavy 1: not shown
heavy 2: not shown
light: DIVMTQSPLSLPVTPGEPASISCQASESLVHSNRNTYLHWYLQKPGQSPQLLIYKVSNRFSGVPDRFSGSGSGTDFTLKISRVEAEDVGVYYCSQNTHVPPTFGQGTKVEIERTVAAPSVFIFPPSDEQLKSGTASVVCLLNNFYPREAKVQWKVDNALQSGNSQESVTEQDSKDSTYSLSSTLTLSKADYEKHKVYACEVTHQGLSSPVTKSFNRGEC
notes: as for B2
He/Con_3a (relative binding activity) [9]: 33.5 % of control | He_3a/2b (IIIa/IIb) [10]: 4.46 ratio

B6: GpH7-A5/GpH7-B3 variant Y300_11K/GpL16-k0 (antibody, human IgG1, kappa)
heavy 1: not shown
heavy 2: not shown
light: DIVMTQSPLSLPVTPGEPASISCQASESLVHSNRNTYLHWYLQKPGQSPQLLIYKVSNRFSGVPDRFSGSGSGTDFTLKISRVEAEDVGVYYCSQNTHVPPTFGQGTKVEIERTVAAPSVFIFPPSDEQLKSGTASVVCLLNNFYPREAKVQWKVDNALQSGNSQESVTEQDSKDSTYSLSSTLTLSKADYEKHKVYACEVTHQGLSSPVTKSFNRGEC
notes: as for B1
He/Con_2aH (relative binding) (FcγRIIa H [1]): 66.9% | He/Con_2b (relative binding) (FcγRIIb [2]): 51.6% | He_2aH/2b (IIaH/IIb ratio) (FcγRIIa H [3]): 1.3

B7: GpH7-A5/GpH7-B3 variant L328_12R/GpL16-k0 (antibody, human IgG1, kappa)
heavy 1: not shown
heavy 2: not shown
light: DIVMTQSPLSLPVTPGEPASISCQASESLVHSNRNTYLHWYLQKPGQSPQLLIYKVSNRFSGVPDRFSGSGSGTDFTLKISRVEAEDVGVYYCSQNTHVPPTFGQGTKVEIERTVAAPSVFIFPPSDEQLKSGTASVVCLLNNFYPREAKVQWKVDNALQSGNSQESVTEQDSKDSTYSLSSTLTLSKADYEKHKVYACEVTHQGLSSPVTKSFNRGEC
notes: as for B2
He/Con_3a (relative binding activity) [9]: 32.7 % of control | He_3a/2b (IIIa/IIb) [10]: 3.53 ratio

B8: GpH7-A5/GpH7-B3 variant A327_12R/GpL16-k0 (antibody, human IgG1, kappa)
heavy 1: not shown
heavy 2: not shown
light: DIVMTQSPLSLPVTPGEPASISCQASESLVHSNRNTYLHWYLQKPGQSPQLLIYKVSNRFSGVPDRFSGSGSGTDFTLKISRVEAEDVGVYYCSQNTHVPPTFGQGTKVEIERTVAAPSVFIFPPSDEQLKSGTASVVCLLNNFYPREAKVQWKVDNALQSGNSQESVTEQDSKDSTYSLSSTLTLSKADYEKHKVYACEVTHQGLSSPVTKSFNRGEC
notes: as for B2
He/Con_3a (relative binding activity) [9]: 19.3 % of control | He_3a/2b (IIIa/IIb) [10]: 2.15 ratio

B9: GpH7-A5/GpH7-B3 variant A327_07I/GpL16-k0 (antibody, human IgG1, kappa)
heavy 1: not shown
heavy 2: not shown
light: DIVMTQSPLSLPVTPGEPASISCQASESLVHSNRNTYLHWYLQKPGQSPQLLIYKVSNRFSGVPDRFSGSGSGTDFTLKISRVEAEDVGVYYCSQNTHVPPTFGQGTKVEIERTVAAPSVFIFPPSDEQLKSGTASVVCLLNNFYPREAKVQWKVDNALQSGNSQESVTEQDSKDSTYSLSSTLTLSKADYEKHKVYACEVTHQGLSSPVTKSFNRGEC
notes: as for B2
He_2aR/2b (FcγRIIa R [4]): 0.77 ratio | He/Con_2b (FcγRIIb [5]): 127 control = 100 | He/Con_2aR (FcγRIIa R [6]): 98 control = 100

B10: GpH7-A5/GpH7-B3 variant A327_10E/GpL16-k0 (antibody, human IgG1, kappa)
heavy 1: not shown
heavy 2: not shown
light: DIVMTQSPLSLPVTPGEPASISCQASESLVHSNRNTYLHWYLQKPGQSPQLLIYKVSNRFSGVPDRFSGSGSGTDFTLKISRVEAEDVGVYYCSQNTHVPPTFGQGTKVEIERTVAAPSVFIFPPSDEQLKSGTASVVCLLNNFYPREAKVQWKVDNALQSGNSQESVTEQDSKDSTYSLSSTLTLSKADYEKHKVYACEVTHQGLSSPVTKSFNRGEC
notes: as for B2
He_2aR/2b (FcγRIIa R [4]): 0.78 ratio | He/Con_2b (FcγRIIb [5]): 140 control = 100 | He/Con_2aR (FcγRIIa R [6]): 110 control = 100

B11: GpH7-A5/GpH7-B3 variant A327_12R/GpL16-k0 (antibody, human IgG1, kappa)
heavy 1: not shown
heavy 2: not shown
light: DIVMTQSPLSLPVTPGEPASISCQASESLVHSNRNTYLHWYLQKPGQSPQLLIYKVSNRFSGVPDRFSGSGSGTDFTLKISRVEAEDVGVYYCSQNTHVPPTFGQGTKVEIERTVAAPSVFIFPPSDEQLKSGTASVVCLLNNFYPREAKVQWKVDNALQSGNSQESVTEQDSKDSTYSLSSTLTLSKADYEKHKVYACEVTHQGLSSPVTKSFNRGEC
notes: as for B2
He_2aR/2b (FcγRIIa R [4]): 0.67 ratio | He/Con_2b (FcγRIIb [5]): 9 control = 100 | He/Con_2aR (FcγRIIa R [6]): 6 control = 100

B12: GpH7-A5/GpH7-B3 variant Y300_08L/GpL16-k0 (antibody, human IgG1, kappa)
heavy 1: not shown
heavy 2: not shown
light: DIVMTQSPLSLPVTPGEPASISCQASESLVHSNRNTYLHWYLQKPGQSPQLLIYKVSNRFSGVPDRFSGSGSGTDFTLKISRVEAEDVGVYYCSQNTHVPPTFGQGTKVEIERTVAAPSVFIFPPSDEQLKSGTASVVCLLNNFYPREAKVQWKVDNALQSGNSQESVTEQDSKDSTYSLSSTLTLSKADYEKHKVYACEVTHQGLSSPVTKSFNRGEC
notes: as for B1
He/Con_2aH (relative binding) (FcγRIIa H [1]): 108% | He/Con_2b (relative binding) (FcγRIIb [2]): 73.6% | He_2aH/2b (IIaH/IIb ratio) (FcγRIIa H [3]): 1.47
